Results as given in publication doi:10.1101/2022.08.26.505362.

Experiments:
[1] = biological target: fibrillin (molecule within bovine ciliary zonule microfibrils) (bovine (endogenous in ciliary zonule)) (UniProt P98133); assay: cryo-EM structure; settings: scale: fibrillin monomers per microfibril repeat
[2] = biological target: fibrillin microfibrils purified from bovine ciliary zonules (bovine (endogenous in ciliary zonule)) (UniProt P98133); assay: STEM mass mapping; settings: scale: molecules of LTBP-1 per microfibril repeat
fibrillin microfibrils purified from bovine ciliary zonules (bovine (endogenous in ciliary zonule)), sequence (P98133 25-2871): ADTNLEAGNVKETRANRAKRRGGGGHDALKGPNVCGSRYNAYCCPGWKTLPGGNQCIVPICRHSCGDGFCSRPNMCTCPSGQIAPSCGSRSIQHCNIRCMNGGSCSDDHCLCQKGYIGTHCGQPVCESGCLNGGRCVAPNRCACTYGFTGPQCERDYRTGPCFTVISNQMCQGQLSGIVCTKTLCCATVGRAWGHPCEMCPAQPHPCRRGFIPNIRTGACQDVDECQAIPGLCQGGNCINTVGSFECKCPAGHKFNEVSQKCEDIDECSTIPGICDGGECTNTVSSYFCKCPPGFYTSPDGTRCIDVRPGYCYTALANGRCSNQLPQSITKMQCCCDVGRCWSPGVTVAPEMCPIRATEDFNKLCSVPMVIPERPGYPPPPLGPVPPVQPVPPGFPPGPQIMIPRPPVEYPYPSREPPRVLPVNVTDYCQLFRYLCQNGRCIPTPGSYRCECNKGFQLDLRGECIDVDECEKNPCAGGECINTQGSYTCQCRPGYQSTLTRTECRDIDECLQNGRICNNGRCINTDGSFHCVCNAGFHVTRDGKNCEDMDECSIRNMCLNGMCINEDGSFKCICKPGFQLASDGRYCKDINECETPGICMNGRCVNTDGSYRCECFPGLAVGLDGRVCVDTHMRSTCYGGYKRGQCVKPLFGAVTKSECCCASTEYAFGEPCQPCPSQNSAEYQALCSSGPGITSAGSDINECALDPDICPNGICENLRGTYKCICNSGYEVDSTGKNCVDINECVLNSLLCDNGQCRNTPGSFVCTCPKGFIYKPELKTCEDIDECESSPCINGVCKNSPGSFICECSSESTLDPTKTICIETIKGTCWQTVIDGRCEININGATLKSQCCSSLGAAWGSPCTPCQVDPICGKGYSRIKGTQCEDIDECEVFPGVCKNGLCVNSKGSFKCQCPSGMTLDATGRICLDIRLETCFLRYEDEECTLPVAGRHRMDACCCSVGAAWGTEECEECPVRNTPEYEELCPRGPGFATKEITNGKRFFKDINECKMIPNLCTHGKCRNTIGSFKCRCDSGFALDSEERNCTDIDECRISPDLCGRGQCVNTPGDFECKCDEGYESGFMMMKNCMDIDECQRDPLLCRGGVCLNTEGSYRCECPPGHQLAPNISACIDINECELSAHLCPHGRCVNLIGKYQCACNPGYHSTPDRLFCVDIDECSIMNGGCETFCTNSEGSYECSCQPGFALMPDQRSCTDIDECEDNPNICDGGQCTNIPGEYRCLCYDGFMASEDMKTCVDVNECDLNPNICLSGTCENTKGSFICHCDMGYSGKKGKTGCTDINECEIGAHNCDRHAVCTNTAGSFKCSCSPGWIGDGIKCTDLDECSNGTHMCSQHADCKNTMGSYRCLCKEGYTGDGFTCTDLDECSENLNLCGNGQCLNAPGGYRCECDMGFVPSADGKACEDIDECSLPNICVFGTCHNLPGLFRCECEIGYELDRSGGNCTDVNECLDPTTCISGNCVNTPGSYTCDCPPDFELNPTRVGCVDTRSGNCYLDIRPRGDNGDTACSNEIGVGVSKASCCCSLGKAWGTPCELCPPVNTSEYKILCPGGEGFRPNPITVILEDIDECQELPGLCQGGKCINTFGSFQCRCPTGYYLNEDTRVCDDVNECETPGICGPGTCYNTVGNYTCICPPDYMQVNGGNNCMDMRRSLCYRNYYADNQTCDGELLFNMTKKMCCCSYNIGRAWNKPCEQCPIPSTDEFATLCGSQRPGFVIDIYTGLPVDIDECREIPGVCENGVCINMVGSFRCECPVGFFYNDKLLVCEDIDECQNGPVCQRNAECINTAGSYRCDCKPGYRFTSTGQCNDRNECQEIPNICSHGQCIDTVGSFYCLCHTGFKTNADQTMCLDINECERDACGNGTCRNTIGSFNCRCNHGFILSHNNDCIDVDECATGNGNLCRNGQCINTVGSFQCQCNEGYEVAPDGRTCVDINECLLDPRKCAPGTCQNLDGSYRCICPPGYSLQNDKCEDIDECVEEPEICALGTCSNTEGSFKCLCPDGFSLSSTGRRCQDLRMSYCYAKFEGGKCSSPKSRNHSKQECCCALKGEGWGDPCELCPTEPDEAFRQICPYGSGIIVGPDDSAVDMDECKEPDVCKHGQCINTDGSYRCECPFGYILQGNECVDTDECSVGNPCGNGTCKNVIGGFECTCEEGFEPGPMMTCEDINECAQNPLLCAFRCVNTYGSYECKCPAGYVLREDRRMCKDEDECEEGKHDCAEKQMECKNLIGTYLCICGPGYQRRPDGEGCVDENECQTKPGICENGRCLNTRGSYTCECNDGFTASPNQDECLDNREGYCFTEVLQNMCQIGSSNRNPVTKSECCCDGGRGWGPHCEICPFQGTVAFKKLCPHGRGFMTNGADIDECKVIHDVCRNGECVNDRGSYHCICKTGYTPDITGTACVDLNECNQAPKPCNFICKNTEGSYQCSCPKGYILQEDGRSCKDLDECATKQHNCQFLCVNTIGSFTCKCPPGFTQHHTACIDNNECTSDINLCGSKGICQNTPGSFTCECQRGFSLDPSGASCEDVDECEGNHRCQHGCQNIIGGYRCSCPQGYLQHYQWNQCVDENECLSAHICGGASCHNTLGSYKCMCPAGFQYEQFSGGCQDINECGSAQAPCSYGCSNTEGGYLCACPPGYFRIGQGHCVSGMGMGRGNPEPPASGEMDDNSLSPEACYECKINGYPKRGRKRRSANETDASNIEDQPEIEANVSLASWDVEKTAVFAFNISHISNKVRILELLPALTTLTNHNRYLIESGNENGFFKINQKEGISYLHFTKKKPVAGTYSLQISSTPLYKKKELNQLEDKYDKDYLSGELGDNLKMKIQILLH

fibrillin (molecule within bovine ciliary zonule microfibrils), sequence (P98133 25-2871): as above

Row | stoichiometry N [1] | stoichiometry N [2] | Substance
1 | 8 | – | fibrillin (molecule within bovine ciliary zonule microfibrils) (from UniProt P98133 25-2871) (natural protein)
2 | – | 2 | full-length LTBP-1 (latent TGFβ-binding protein-1) (from UniProt Q14766 24-1721) (natural protein)
